The results in this text go back to paper PMC5439444 (Vascular pharmacology, 2016).

The test addresses GST fusion protein of human full-length (FL) Pin1 (residues 1-163) (human, UniProt Q13526 1-163). In words: pull-down.

Chain of GST fusion protein of human full-length (FL) Pin1 (residues 1-163) (Q13526 whole entry, the tested form may be a part): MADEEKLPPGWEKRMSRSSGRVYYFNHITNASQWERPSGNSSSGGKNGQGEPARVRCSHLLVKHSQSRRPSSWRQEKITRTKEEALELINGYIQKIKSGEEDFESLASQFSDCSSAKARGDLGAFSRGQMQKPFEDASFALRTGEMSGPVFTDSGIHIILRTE

B1: bovine phospho-mimetic S116D endothelial nitric oxide synthase (eNOS) (enzyme, UniProt P29473 1-1205, looked up)
chain: MGNLKSVGQEPGPPCGLGLGLGLGLCGKQGPASPAPEPSRAPAPATPHAPDHSPAPNSPTLTRPPEGPKFPRVKNWELGSITYDTLCAQSQQDGPCTPRCCLGSLVLPRKLQTRPDPGPPPAEQLLSQARDFINQYYSSIKRSGSQAHEERLQEVEAEVASTGTYHLRESELVFGAKQAWRNAPRCVGRIQWGKLQVFDARDCSSAQEMFTYICNHIKYATNRGNLRSAITVFPQRAPGRGDFRIWNSQLVRYAGYRQQDGSVRGDPANVEITELCIQHGWTPGNGRFDVLPLLLQAPDEAPELFVLPPELVLEVPLEHPTLEWFAALGLRWYALPAVSNMLLEIGGLEFSAAPFSGWYMSTEIGTRNLCDPHRYNILEDVAVCMDLDTRTTSSLWKDKAAVEINLAVLHSFQLAKVTIVDHHAATVSFMKHLDNEQKARGGCPADWAWIVPPISGSLTPVFHQEMVNYILSPAFRYQPDPWKGSATKGAGITRKKTFKEVANAVKISASLMGTLMAKRVKATILYASETGRAQSYAQQLGRLFRKAFDPRVLCMDEYDVVSLEHEALVLVVTSTFGNGDPPENGESFAAALMEMSGPYNSSPRPEQHKSYKIRFNSVSCSDPLVSSWRRKRKESSNTDSAGALGTLRFCVFGLGSRAYPHFCAFARAVDTRLEELGGERLLQLGQGDELCGQEEAFRGWAKAAFQASCETFCVGEEAKAAAQDIFSPKRSWKRQRYRLSTQAEGLQLLPGLIHVHRRKMFQATVLSVENLQSSKSTRATILVRLDTAGQEGLQYQPGDHIGICPPNRPGLVEALLSRVEDPPPPTESVAVEQLEKGSPGGPPPSWVRDPRLPPCTLRQALTFFLDITSPPSPRLLRLLSTLAEEPSEQQELETLSQDPRRYEEWKWFRCPTLLEVLEQFPSVALPAPLLLTQLPLLQPRYYSVSSAPNAHPGEVHLTVAVLAYRTQDGLGPLHYGVCSTWLSQLKTGDPVPCFIRGAPSFRLPPDPYVPCILVGPGTGIAPFRGFWQERLHDIESKGLQPAPMTLVFGCRCSQLDHLYRDEVQDAQERGVFGRVLTAFSREPDSPKTYVQDILRTELAAEVHRVLCLERGHMFVCGDVTMATSVLQTVQRILATEGDMELDEAGDVIGVLRDQQRYHEDIFGLTLRTQEVTSRIRTQSFSLQERHLRGAVPWAFDPPGPDTPGP
Take B1: the “amount bound relative to WT eNOS” value is > 2 fold.
